T1: tubby-N (N-terminus of mouse tubby, 1M-242P), GST-free (mouse, UniProt P50586 1-242)
T1 construct: range 1-242; Expressed as GST-tubby-N in E. coli BL21(DE3), GST removed by 3C protease cleavage; also called GST-free tubby-N
T1 sequence (looked up): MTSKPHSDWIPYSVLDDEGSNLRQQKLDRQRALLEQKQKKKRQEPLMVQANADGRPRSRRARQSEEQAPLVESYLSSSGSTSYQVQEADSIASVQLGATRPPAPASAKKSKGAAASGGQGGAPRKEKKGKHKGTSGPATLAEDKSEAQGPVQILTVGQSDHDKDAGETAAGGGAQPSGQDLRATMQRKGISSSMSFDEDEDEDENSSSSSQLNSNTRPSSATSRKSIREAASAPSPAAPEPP

T2: FLAG-tubby-F (full-length mouse tubby with N-terminal FLAG tag) (mouse, UniProt P50586 1-505)
T2 construct: mature; also called FLAG-tagged tubby; tubby-vesicles
T2 sequence: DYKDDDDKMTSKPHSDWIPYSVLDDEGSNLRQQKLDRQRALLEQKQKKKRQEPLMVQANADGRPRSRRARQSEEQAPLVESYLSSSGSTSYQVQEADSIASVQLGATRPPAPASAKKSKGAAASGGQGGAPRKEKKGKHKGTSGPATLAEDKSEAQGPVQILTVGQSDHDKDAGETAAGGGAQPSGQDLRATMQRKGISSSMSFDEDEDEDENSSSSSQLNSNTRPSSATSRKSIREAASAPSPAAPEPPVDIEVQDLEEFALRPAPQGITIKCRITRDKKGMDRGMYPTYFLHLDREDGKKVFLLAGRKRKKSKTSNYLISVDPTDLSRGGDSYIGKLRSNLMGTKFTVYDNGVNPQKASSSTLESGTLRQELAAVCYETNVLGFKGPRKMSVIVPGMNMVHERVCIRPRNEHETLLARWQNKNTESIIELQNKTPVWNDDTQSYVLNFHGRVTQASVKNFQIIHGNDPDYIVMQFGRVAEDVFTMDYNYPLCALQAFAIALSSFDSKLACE

T3: FLAG-tagged Tulp2 (full-length mouse Tulp2 with N-terminal FLAG tag) (mouse, UniProt P46686 1-562)
T3 construct: mature; Expressed from pcDNA3 in Neuro-2a cells; used as cell lysate or on membrane vesicles
T3 sequence: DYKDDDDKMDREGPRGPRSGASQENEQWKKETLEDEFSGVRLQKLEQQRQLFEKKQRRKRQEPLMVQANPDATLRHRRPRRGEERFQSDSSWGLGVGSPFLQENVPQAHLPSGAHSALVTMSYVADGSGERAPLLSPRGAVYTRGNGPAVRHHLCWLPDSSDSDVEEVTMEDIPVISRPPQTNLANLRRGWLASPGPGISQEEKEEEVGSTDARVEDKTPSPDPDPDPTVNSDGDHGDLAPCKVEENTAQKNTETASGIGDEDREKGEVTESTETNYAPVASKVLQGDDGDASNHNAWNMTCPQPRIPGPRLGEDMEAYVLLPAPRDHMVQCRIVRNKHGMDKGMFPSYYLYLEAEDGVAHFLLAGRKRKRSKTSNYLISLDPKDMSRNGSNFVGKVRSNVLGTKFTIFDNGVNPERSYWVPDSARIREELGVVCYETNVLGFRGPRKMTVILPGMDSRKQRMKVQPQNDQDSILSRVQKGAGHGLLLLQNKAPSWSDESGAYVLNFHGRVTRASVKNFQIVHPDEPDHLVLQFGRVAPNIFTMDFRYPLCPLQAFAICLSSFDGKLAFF

B1: Structure specific recognition protein 1 (Ssrp1) 486E-619G, phage clone (other, mouse, UniProt Q08943 486-619, looked up)
chain: EEEEDVAEEFDSNASASSSSNEGDSDREEKKREQLKRAKMAKDRKSRRKSSEAKKGKDPNAPKRPMSAYMLWLNASREKIKSDHPGISITDLSKKAGEIWKGMSKEKKEEWDRKAEDARREYEKAMKEYEGGRG
notes: range 486-619; Minimal overlap of 2 independent clones; For Y2H recloned into pGAD424
B2: High mobility group box 2 (Hmgb2) 89K-188E, phage clone (other, mouse, UniProt P30681 89-188, looked up)
chain: KKDPNAPKRPPSAFFLFCSENRPKIKIEHPGLSIGDTAKKLGEMWSEQSAKDKQPYEQKAAKLKEKYEKDIAAYRAKGKSEAGKKGPGRPTGSKKKNEPE
notes: range 89-188; Minimal overlap of 5 independent clones; For Y2H recloned into pGAD424
B3: PC4 and SFRS1 interacting protein 1 (Psip1) 152K-219K, phage clone (other, mouse, UniProt Q99JF8 152-219, looked up)
chain: KAEKQVDTEEAGMVTAATASNVKASPKRGRPAATEVKIPKPRGRPKVVKQPCPSDGDMVIDEDKSKKK
notes: range 152-219; Minimal overlap of 4 independent clones; For Y2H recloned into pGAD424
B4: Microtubule-associated protein 7 (Mtap7) 23A-114R, phage clone (other, mouse, UniProt O88735 23-114, looked up)
chain: ASDGYKVQEKRTAPSRPTSTVSGQTSNHSGNKPDPPPVLRVDDRQRLARERREEREKQLAARETVWLEREERARQHYERHLEARKKKLEDQR
notes: range 23-114; For Y2H recloned into pGAD424
B5: Zinc finger E-box binding homeobox 1 (Zeb1) 903E-1021E, phage clone (other, mouse, UniProt Q64318 903-1021, looked up)
chain: EHTGKRPHECGICRKAFKHKHHLIEHMRLHSGEKPYQCDKCGKRFSHSGSYSQHMNHRYSYCKRGAEDRDAMEQEDAGPEVLPEVLATEHVGARASPSQADSDERESLTREEDEDSEKE
notes: range 903-1021; Residues are the minimal overlap of 2 independent clones; For Y2H the insert was recloned into pGAD424
B6: Zinc finger protein 609 (Zfp609) 1M-183E, phage clone (other, mouse, UniProt Q8BZ47 1-183, looked up)
chain: MSLSSGACGGKGVDANPVETYDSGDEWDIGVGNLIIDLDADLEKDQQKLEMSGSKEVGIPAPNAVATLPDNIKFVTPVPGPQGKEGKSKSKRSKSGKDASKPTPGTSLFSPSEGAASKKEVQGRAGDGASAGGLVAAVAPKGSEKAAKASRSVAGSKKEKENSSSKGKKERSEGVGTCSEKDP
notes: range 1-183; Minimal overlap of 2 independent clones; For Y2H recloned into pGAD424
B7: PH181: SPRY domain containing 3 (Spryd3) 31I-215S, phage clone (other, mouse)
chain: IREIREVRAFRYQERFKHILVDGDTLSYHGNSGEVGCYVASRPLTKDSNYFEVSIVDSGVRGTIAVGLVPQYYSLDHQPGWLPDSVAYHADDGKLYNGRAKGRQFGSKCNSGDRIGCGIEPVSFDVQTAQIFFTKNGKRVGSTIMPMSPDGLFPAVGMHSLGEEVRLHLNAELGREDDSVMMVDS
notes: range 31-215; Frequency 8
B8: ATP-binding cassette F1 (Abcf1) 57K-196G, phage clone (other, mouse, UniProt Q6P542 57-196, looked up)
chain: KLQKEKEQQQQQQQQKKKRDTRKGRRKKDVDDDSDERVLMERLKQLSVPASDEEDEVPAPIPRGRKKAKGGNVFEALIQDDSEEEEEEEENRVLKPAKPEKNRINKAVAEEPPGLRSKKGKEEKSKGKAKSKPAAADSEG
notes: Minimal overlap of 2 independent clones; For Y2H recloned into pGAD424
B9: PH194: Growth arrest specific 6 (Gas6) 43Q-148R, phage clone (ligand, mouse, UniProt Q61592 43-148, looked up)
chain: QRRAYQVFEEAKQGHLERECVEEVCSKEEAREVFENDPETEYFYPRYQECMRKYGRPEEKNPDFAKCVQNLPDQCTPNPCDKKGTHICQDLMGNFFCVCTDGWGGR
notes: range 43-148
B10: PH207: Microfibrillar-associated protein IA or IB (Mfap1) 160K-290E, phage clone (other)
chain: KNEEMEVMEVEDEGRSGEESESESEYEEYTDSEDEMEPRLKPVFIRKKDRVTVQEREAEALKQKELEQEAKRMAEERRKYTLKIVEEETKKELEENKRSLAALDALNTDDENDEEEYEAWKVRELKRIKRE
notes: Frequency 4; not shown: T7 capsid 10B fusion partner, linker/3C cleavage site and C-terminal biotinylation tag of the phage display construct
B11: GST-tubby-F (GST fused to full-length mouse tubby) (other, UniProt P50586 1-505, looked up)
chain: MTSKPHSDWIPYSVLDDEGSNLRQQKLDRQRALLEQKQKKKRQEPLMVQANADGRPRSRRARQSEEQAPLVESYLSSSGSTSYQVQEADSIASVQLGATRPPAPASAKKSKGAAASGGQGGAPRKEKKGKHKGTSGPATLAEDKSEAQGPVQILTVGQSDHDKDAGETAAGGGAQPSGQDLRATMQRKGISSSMSFDEDEDEDENSSSSSQLNSNTRPSSATSRKSIREAASAPSPAAPEPPVDIEVQDLEEFALRPAPQGITIKCRITRDKKGMDRGMYPTYFLHLDREDGKKVFLLAGRKRKKSKTSNYLISVDPTDLSRGGDSYIGKLRSNLMGTKFTVYDNGVNPQKASSSTLESGTLRQELAAVCYETNVLGFKGPRKMSVIVPGMNMVHERVCIRPRNEHETLLARWQNKNTESIIELQNKTPVWNDDTQSYVLNFHGRVTQASVKNFQIIHGNDPDYIVMQFGRVAEDVFTMDYNYPLCALQAFAIALSSFDSKLACE
notes: mature; Expressed in E. coli BL21(DE3) from pGEX-2T; not shown: glutathione S-transferase of pGEX-2T (Schistosoma japonicum)
B12: CCCTC-binding factor (Ctcf) 136G-400T, phage clone (other, mouse, UniProt Q61164 136-400, looked up)
chain: GAYENEVSKEGLAESEPMICHTLPLPEGFQVVKVGANGEVETLEQGELPPQEDSSWQKDPDYQPPAKKTKKTKKSKLRYTEEGKDVDVSVYDFEEEQQEGLLSEVNAEKVVGNMKPPKPTKIKKKGVKKTFQCELCSYTCPRRSNLDRHMKSHTDERPHKCHLCGRAFRTVTLLRNHLNTHTGTRPHKCPDCDMAFVTSGELVRHRRYKHTHEKPFKCSMCDYASVEVSKLKRHIRSHTGERPFQCSLCSYASRDTYKLKRHMRT
notes: range 136-400; For Y2H recloned into pGAD424
B13: IQ motif containing GTPase activating protein 2 (Iqgap2) 1232E-1368E, phage clone (other, mouse, UniProt Q3UQ44 1232-1368, looked up)
chain: EKSDLLNELLESLGEVPTVESFLGEGAVDPNDPNKENTLNQLSKTEISLSLTSKYDVKDGEAVDGRSLMIKTKKLIIDVTRNQPGSTLTEILETPATGQQELEHAKDMESRAVVDSRTPEEGKQSQAVIEDARLPLE
notes: range 1232-1368
B14: Tubby like protein 1 (Tulp1) 125D-243E, phage clone (other, mouse, UniProt Q9Z273 125-243, looked up)
chain: DDDEEEEEKKEGKKEKSSLPPKKAPKEREKKAKALGPRGDVGSPDAPRKPLRTKKKEVGEGTKLRKAKKKGPGETDKDPAGSPAALRKEFPAAMFLVGEGGAAEKGVKKKGPPKGSEEE
notes: range 125-243; For Y2H recloned into pGAD424

Key:
[1] = molecular target: T1, tubby-N (N-terminus of mouse tubby, …); assay: clonal phage on immobilized tubby-N, plaque assay
[2] = molecular target: T2, FLAG-tubby-F (full-length mouse tubby …); assay: clonal phage on immobilized FLAG-tubby-F, plaque assay
[3] = molecular target: T4, Axl-Fc (Axl extracellular domain fused to human IgG1 Fc fragment) (human); assay: clonal phage on immobilized Axl-Fc, plaque assay
T4 construct: extracellular domain; Bought (R&D Systems)
T4 sequence (P30530 whole entry, the tested form may be a part): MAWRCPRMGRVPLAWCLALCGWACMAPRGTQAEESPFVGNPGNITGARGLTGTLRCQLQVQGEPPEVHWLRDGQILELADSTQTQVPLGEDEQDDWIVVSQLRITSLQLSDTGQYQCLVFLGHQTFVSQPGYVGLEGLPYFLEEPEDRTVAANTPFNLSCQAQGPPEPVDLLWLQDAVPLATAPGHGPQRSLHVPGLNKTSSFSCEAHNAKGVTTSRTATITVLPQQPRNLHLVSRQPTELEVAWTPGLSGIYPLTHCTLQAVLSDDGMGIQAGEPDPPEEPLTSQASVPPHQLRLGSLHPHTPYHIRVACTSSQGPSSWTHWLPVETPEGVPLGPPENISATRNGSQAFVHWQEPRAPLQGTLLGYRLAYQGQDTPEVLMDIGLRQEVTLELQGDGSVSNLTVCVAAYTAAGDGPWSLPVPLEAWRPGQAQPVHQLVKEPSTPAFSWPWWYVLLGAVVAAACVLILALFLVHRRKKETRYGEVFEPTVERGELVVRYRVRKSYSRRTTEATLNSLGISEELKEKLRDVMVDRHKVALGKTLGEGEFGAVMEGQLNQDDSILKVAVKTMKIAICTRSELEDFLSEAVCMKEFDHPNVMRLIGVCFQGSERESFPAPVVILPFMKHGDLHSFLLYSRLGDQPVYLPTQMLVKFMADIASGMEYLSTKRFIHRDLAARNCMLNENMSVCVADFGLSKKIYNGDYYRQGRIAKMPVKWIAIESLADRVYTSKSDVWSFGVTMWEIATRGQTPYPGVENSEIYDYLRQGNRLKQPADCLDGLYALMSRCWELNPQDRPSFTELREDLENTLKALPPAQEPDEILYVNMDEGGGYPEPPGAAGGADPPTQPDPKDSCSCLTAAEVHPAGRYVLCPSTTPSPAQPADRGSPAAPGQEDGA

[4] = molecular target: T3, FLAG-tagged Tulp2 (full-length mouse …); assay: GST pull-down: GST-tubby with lysate of cells expressing the FLAG-tagged protein, glutathione resin, Western blot with anti-FLAG mAb
[5] = molecular target: T2, FLAG-tubby-F (full-length mouse tubby …); assay: as above

Binder	Binding to tubby-N (binding specificity of clonal phage vs. control phage) [1]	Binding to tubby-F (binding specificity to FLAG-tubby-F vs. to GFP-FLAG) [2]	Binding activity (pfu ratio of clonal phage binding to immobilized Axl-Fc versus blank) [3]	binding result [4]	binding result [5]
B1	~157 X (fold)	~4.5 X (fold)			
B2	~312 X (fold)	~21.7 X (fold)			
B3	~196 X (fold)	~24 X (fold)			
B4	~3.5 X (fold)	~3.8 X (fold)			
B5	~284 X (fold)	~28.7 X (fold)			
B6	~53.2 X (fold)	~2.3 X (fold)			
B7			~1e+06 X (fold)		
B8	~68.2 X (fold)	~27.2 X (fold)			
B9			~40 X (fold)		
B10			~36700 X (fold)		
B11				no binding	no binding
B12	~117 X (fold)	~44.9 X (fold)			
B13	~53.2 X (fold)	~1.8 X (fold)			
B14	~49 X (fold)	~29.1 X (fold)			
